Measurements reported in publication PMC8635412.

Columns and labels:
[1] = biological target: Biotinylated UBE3A HECT domain, wild type (METRIS) (human); test: METRIS (mechanically transduced immunosorbent assay, rolling magnetic probes); biotinylated ubiquitin on streptavidin-coated ferromagnetic beads rolling on avidin-coated slides coated with biotinylated UBE3A HECT domain; rotating magnetic field 1 Hz for 5 s; read-out rolling parameter (dimensionless)
[2] = biological target: Biotinylated UBE3A HECT domain Q588E (METRIS) (human); test: as above

rolling parameter (ζ) [1] | rolling parameter (ζ) [2] | Substance
0.178 | – | Biotinylated Cys-ubiquitin (ubiquitin variant with an N-terminal cysteine) on streptavidin-coated ferromagnetic particles (from UniProt P0CG48 1-76)
– | 0.247 | Biotinylated Cys-ubiquitin (ubiquitin variant with an N-terminal cysteine) on streptavidin-coated ferromagnetic particles (from UniProt P0CG48 1-76) (natural protein)
